# Source: the DeepSol protein solubility set
# Experiment: soluble on expression in E. coli; label from the status in PepcDB or PDB records
row,Sequence,soluble on expression in E. coli
1,MSLETFLCGKESCNKGYIRHPWYGKKVGYIGDSITDPNCYGDNIKKYWDFLKEWLDITPYVYGVSGRQWNDVPRQAEQLKKEHGEEVDAIVVLMGTNDFNSSVPVGTWFAEKEEQVMAARGETKKLETRKRRVPIMTNDTYKGRINIGLSHLKKLFPDKQIVLLTPLHRSLAEFGEKNVQPDESYQNKCGEYVDAYVQAIKEAGNLWGVPVIDFNSVTGMNPMIEEQLIYFYDSGYDRLHPNTNGQERMAHTLMYQLLSLPASFEGHHHHHH,soluble
2,MSLETSTQCTSAVAHTSGRRNYNEDRICVATNIEGADLFAVFDGHNGHEAATLCRNKLKQVYGSCHGNINDTFQSLNDIVSKETTAGCTATIVAVKQNSIEVGNCGDSPAYVIRKDKSIEKITYDHKATDPKEEEMIVKNGGVVMNLFGTKRVNGQIMVTRSIGDRSLHPPMTSIPTTKIISKEDIISICVMSDGVTDALTDLEIHDIMTNGQPIEIRAQTIRNQAYKEGSKDNICVVVVDLEGHHHHHH,soluble
3,MSLFGTSTTAPAASTTPLFGSTAAAAPKPGGLFGAPAAAMSSGLFGASQTAPAPASAGLFGSTTAPTPASTSSVPLFGSTTTTASPSGGLFGAKTATTAAPAPTGGLFGASTAAPATGSLFGSTAPATGGLFGAKSTTSAAPTLGGGLFGSSTAPAAAATTSFGAPPATAAAPLGLGGIQQQNSSGGGLPNASGTATSSLTGTGDSKDASKDGEWTQAATLIRDLLPLIEDKFKKNREFMEETENMSIDNVAIEEQIDKTRGWIEEVRRDVLTATQSSERIAYLVSTDKTLCDTTKRVQEHSGSANQTTYMNAIKEHLAELCNFYGNDMDALQERVNFLRNRFEKLLTGEKSITMEELDAYFLRCDANVSNAHHHVTELGKEIEEIRDFLIEQGYTQLRKWSTTAASAAAPIASNSEMIVREGAEFFPSQSSLAIIGSSLRAPAAPAPAVGGLGLGTGTSLFGNTGTTSLFGSTATKPAFSGGSLFGATTSTATSSAAATTTTPTTSLFGSTKPATTTTPFASTVANNSSGLLFSSKK,not soluble
4,MSLFINKEAELQWVREYARRSHATPFVIYGPEGCGKTALALEAVRRFSSWYAGGIALYIDGKARRAAEAVKSNVNIGDVLAEVGGLAGSVGRSAARLAVWLLGKIVEKIAERFAPMNILVVDELFSAVGVSEGALAVKYAKELGDRVLRSKKAELGEIPKPLAEASVSYLIFSSEGSSRRELSRHNWAHIALMWNMGERGFQQLGEILGAPDFSAAWRLCGGQPPLPFPISRAGLGRGKIPNSNREGHHHHHH,soluble
5,MSLGDEWARIRKDGALLIGLEGTFPPYSQLAGGQLQGFEVDFGRALAAQMGVTARFQTMVWDHMLDSLAAGRLDAVINQVVATPARGKRFDFSIPYTYSGLQLVVRKPDLTRFRGARDLAGAHVGVSAGTNYEQWLRDNAPQAHIHLYQDDPTKFDGLRRGEVDAIVINRLAAFNLALKSQGELVPTGRVLAREDACVVLRKGNPRLLAEVNRAIGHLQRDGTLQALSRKWFKADIVSEGHHHHHH,soluble
6,MSLGETAWCRHPLAYLVEAADDICYALLDLEDGLEMGILRFDEVAEILIQIAGGAPEGYDGMRARGVSQRRRIATLRGAAMERAVNDVAAVFVAHESALLGGTLSEDLLELCHPDLGWGVGTAKRIARERIFQNERKAKLEIGAYTTLGILLEAFIGAAHELHYSGQSSFKHQRVLALIGENTPKSSWSLYASYRRMLDFIGGMTDHYAVDLAQEMGGRLEGHHHHHH,not soluble
7,MSLGFIEEIKSALGNYVITEKKDLIPYMNDASYFTGEMPEAVVLPGSAEDVQTIMRLAYKYEKPVVVKGGGSSLTGSSILKESGIVMSMLRMNRILDINLNDKCVTVEPGLRLNDLQLYLDKYGHFYPPDPASSMAATVGGSISTNAGGLRGVAYGVTKDWILGLDVVLADGTMVKFGNKTLKRTLGYDLTSLMIGSEGTLGVITKAYLKIWPKPQKVARLVAFYQDIESAGRAVNELKVSTIPEMAEFLDKISLDSVPEAITYPPGTKYALIIDVSGPPELLGKKKTETEELLKRYAISTKSTTDPAEMEKIYRARKGLYASILKLRKSEKEYIVIGDIVVPVSELPTSLKEIEKKRDEDGVRAAIFGHIGDGNIHANIFADLGDNSAMDKVNRFMMDLAMVAVKHGGSVSAEHGIGIEKKQLLIEEMKYNNNLRTLDIMKAIKQVFDPKNILNRGNIFEEGHHHHHH,soluble
8,MSLGHIIVTGAGSGLGRALTIGLVERGHQVSMMGRRYQRLQQQELLLGNAVIGIVADLAHHEDVDVAFAAAVEWGGLPELVLHCAGTGEFGPVGVYTAEQIRRVMESNLVSTILVAQQTVRLIGERGGVLANVLSSAAQVGKANESLYCASKWGMRGFLESLRAELKDSPLRLVNLYPSGIRSEFWDNTDHVDPSGFMTPEDAAAYMLDALEARSSCHVTDLFIGRNEGHHHHHH,soluble
